The chains are these.
B1: LINE1-full (parent)
chain: UACGUAGGUGGUUUUCCCCUGAUAGUGCUAAGGGGGCCUGGAAGUUUGGACUGGGCAGAGCUCAACACAGCGUGGCAAAGUGGCUGUGGCUAGACUGCCUCUCUGGAUUCCUCGUCACUCAGCAGGGCAUCUCUGAGAGAAAUGCC

The variants in the series derive from B1. The series can be described thus: self-cleavage, relative activity (ratio to wild type); higher = more cleavage; in vitro, sequencing; the parent is a self-cleaving ribozyme.
As for G34U U119C, the self-cleavage is 1.7.
C38A U143G: the self-cleavage worked out at 1.43.
In the case of C38U A117G, the self-cleavage came out at 2.38.
For G34U A107U the value was 1.96.
For the variant G35U G75C, the self-cleavage amounted to 0.77.
Consider C37G A94G, for which the self-cleavage was 0.32.
On to C37A C95A, for which the self-cleavage stood at 0.01.
In the case of G36A A78G, the self-cleavage turned out to be 1.32.
In the case of G34U U143G, the self-cleavage came out at 1.01.
Turning to G34U U96G, the self-cleavage amounted to 0.
In the case of G36U U108C, the self-cleavage turned out to be 1.62.
For the variant G33U U47C, the self-cleavage came to 1.73.
For the variant G36U U143C, the self-cleavage was 1.16.
In the case of G34U G48A, the self-cleavage was determined as 1.49.
As for C37A C90U, the self-cleavage was determined as 0.04.
In the case of G35A U134G it was 0.47.
G35A U134C: the self-cleavage amounted to 0.92.
For the variant G33U A141G, the self-cleavage was found to be 1.32.
With C38G U73A, the self-cleavage stood at 1.76.
With C37G U102C, the self-cleavage worked out at 1.19.
For C37G U102A the value was 0.9; for C38U U39A, 1.09.
In the case of C38U C110A it was 1.64; in that of G35A C76U, 2.14.
As to C37U U85C, the self-cleavage came out at 0.19.
For the variant G33U A59U, the self-cleavage came out at 0.62.
In the case of G34A C95A it was 0.07; in that of G34A U108G, 1.55; in that of G34A U108C, 1.16.
Consider G34U U73A, for which the self-cleavage turned out to be 2.36.
In the case of G34U U73G it was 0.99; in that of G36A A50U, 1.16; in that of G34A, 1.16.
With G34C, the self-cleavage came out at 1.47.
For G34U, the self-cleavage was determined as 1.43.
In the case of G35C U85C it was 0.22.
Consider C38U U62C, for which the self-cleavage amounted to 0.
Turning to C38U U62A, the self-cleavage was determined as 0.02.
Turning to G34U A43U, the self-cleavage stood at 0.97.
In the case of G34U A43G, the self-cleavage came to 1.06.
For G34A C120U, the self-cleavage was determined as 1.64.
For the variant G34U A138U, the self-cleavage is 1.19.
On to G34U A138G, for which the self-cleavage came to 1.56.
In the case of C38A A69G, the self-cleavage turned out to be 0.61.
For the variant C38G U52A, the self-cleavage came out at 1.04.
For G35A U104C the value was 1.42; for G33U C103U, 1.15; for C37U A140G, 0.26.
For the variant C37U A140U, the self-cleavage was determined as 1.14.
G36C A107G: the self-cleavage was found to be 2.05.
Turning to C37G A142G, the self-cleavage was found to be 1.25.
For G35A U39C the value was 0.53; for C37U A138G, 1.2; for C37A U108C, 1.51.
In the case of G34U A117G, the self-cleavage turned out to be 2.
For the variant G34A U45C, the self-cleavage amounted to 0.87.
Take G33U A94G: the self-cleavage came out at 0.15.
As for G34U U104A, the self-cleavage was 1.53.
As to G34A U102C, the self-cleavage was found to be 1.43.
Consider G35U C113U, for which the self-cleavage is 1.09.
As to C38U U130C, the self-cleavage amounted to 1.46.
As to G34A A94G, the self-cleavage was 0.18.
In the case of G34U U91C, the self-cleavage was 0.51.
With G34U U91A, the self-cleavage is 0.49.
For G36A A64G the value was 0.13; for G34A A138G, 1.68; for G35A G125U, 1.03.
For G34C U62A the value was 0.04; for G34A A140G, 0.5.
Turning to C37G A79G, the self-cleavage is 0.85.
In the case of C37U U115C, the self-cleavage came to 1.67.
As to G35A G86A, the self-cleavage was determined as 0.05.
C37U U109A: the self-cleavage stood at 1.24.
As to G34C A136G, the self-cleavage came to 1.79.
For G34U U81C, the self-cleavage was determined as 2.12.
With G34C A77G, the self-cleavage turned out to be 1.64.
In the case of G34C A77U it was 1.18; in that of C37U U52C, 1.13.
Take C37U U52G: the self-cleavage was determined as 0.88.
Take G33U A69G: the self-cleavage is 0.69.
As for G33U C101U, the self-cleavage amounted to 1.26.
As to C38A U104C, the self-cleavage came out at 0.82.
In the case of G33U A136G it was 1.7.
As to G36A A57U, the self-cleavage came out at 0.12.
For G36A A57G the value was 1.52; for G34A A42G, 0.35.
As for U39A A57U, the self-cleavage was 0.12.
Regarding U39A A57G, the self-cleavage was determined as 0.87.
As to G35A U45A, the self-cleavage came out at 1.28.
For C38U G41U the value was 1.21; for G34C U39C, 1.65.
On to G36C U104C, for which the self-cleavage was found to be 1.87.
For G34C A141G the value was 1.66; for G36C U47A, 0.89.
In the case of G35C U47C it was 1.84; in that of G35A U52A, 0.86.
With G35U U52A, the self-cleavage came out at 0.51.
With G35A A79U, the self-cleavage turned out to be 1.72.
For the variant C37A U130C, the self-cleavage came out at 1.39.
As for U39A A65G, the self-cleavage was found to be 0.05.
Turning to U39A A65U, the self-cleavage was found to be 0.15.
On to U39A A43U, for which the self-cleavage turned out to be 1.39.
Take G35C A59G: the self-cleavage is 0.19.
With G34A A57G, the self-cleavage was 1.21.
Take C37A U96C: the self-cleavage turned out to be 0.08.
In the case of G34A C103U, the self-cleavage is 1.7.
In the case of C38U A136U, the self-cleavage is 1.08.
With G36A A136G, the self-cleavage is 1.43.
On to G34A A79U, for which the self-cleavage amounted to 2.33.
With G34A A79G, the self-cleavage stood at 1.11.
Consider G36A, for which the self-cleavage was 1.16.
In the case of G36C it was 1.07; in that of G36U, 1.35.
For G35C U134A the value was 0.71; for G35U C110U, 1.51.
C37G G60A: the self-cleavage is 0.06.
As to G35A A141G, the self-cleavage amounted to 1.39.
For C37U U130A, the self-cleavage is 0.99.
For the variant G35U U104A, the self-cleavage stood at 1.31.
For G35U U87C the value was 0.14; for G33U A124U, 1.84; for G35A U96C, 0.09.
C37G A65G: the self-cleavage was 0.
Consider G36C G74U, for which the self-cleavage was determined as 1.21.
On to G33U U134A, for which the self-cleavage came out at 1.24.
For G36A A138G the value was 1.53.
As for U39A A59G, the self-cleavage turned out to be 0.08.
For the variant U39A A59U, the self-cleavage was determined as 1.19.
On to C38U U96C, for which the self-cleavage was found to be 0.17.
Turning to C38U U96A, the self-cleavage was 0.04.
On to G34U A64G, for which the self-cleavage worked out at 0.36.
In the case of C37A A94U, the self-cleavage stood at 0.23.
As to C37A A94C, the self-cleavage is 0.06.
In the case of C37G U62C, the self-cleavage was 0.12.
In the case of C38U U46A it was 1.28; in that of G36C U81C, 0.9.
For G34U U85G, the self-cleavage came out at 0.09.
For the variant G34C A140G, the self-cleavage came out at 1.38.
Turning to G36C U102C, the self-cleavage is 1.08.
For the variant C38U A43G, the self-cleavage is 0.81.
In the case of C37U C113U, the self-cleavage amounted to 0.42.
As for G34U U109C, the self-cleavage came out at 1.52.
Consider G35C U119C, for which the self-cleavage was 1.98.
For C37G U96G, the self-cleavage was 0.07.
C38A A136G: the self-cleavage came out at 0.7.
In the case of G36A U100C it was 2.05; in that of G35A U108C, 1.11; in that of G36A A140G, 1.3.
For C37G A59G, the self-cleavage amounted to 0.07.
Take C37G A59U: the self-cleavage is 0.84.
Take G34U A79G: the self-cleavage came out at 0.55.
Regarding G36U A107G, the self-cleavage worked out at 0.9.
As for G35U A94G, the self-cleavage was 0.19.
In the case of G35U U134C it was 1.12.
On to G35U U143A, for which the self-cleavage was determined as 1.56.
In the case of G35C U132C it was 1.53; in that of C37U G88A, 0.04; in that of G35A A77G, 1.92.
As to G35A A77U, the self-cleavage is 0.8.
For G36C U52A the value was 0.45; for C37U A107G, 1.07; for G34A A141G, 1.41.
With G36C U143A, the self-cleavage was found to be 0.7.
With G34U U47C, the self-cleavage amounted to 2.18.
For C37G A138G the value was 0.8; for C37U A67U, 0.08.
Consider C37U U112A, for which the self-cleavage was 1.07.

The values above are taken from the RNAGym collection of RNA variant scans (doi:10.7554/elife.90254).
